Results: article PMC6352652 (2018)

What was measured:
[1] = biological target: T1, FBG domain of rat tenascin-C (rat); assay: SPR; 37°C
T1 chain: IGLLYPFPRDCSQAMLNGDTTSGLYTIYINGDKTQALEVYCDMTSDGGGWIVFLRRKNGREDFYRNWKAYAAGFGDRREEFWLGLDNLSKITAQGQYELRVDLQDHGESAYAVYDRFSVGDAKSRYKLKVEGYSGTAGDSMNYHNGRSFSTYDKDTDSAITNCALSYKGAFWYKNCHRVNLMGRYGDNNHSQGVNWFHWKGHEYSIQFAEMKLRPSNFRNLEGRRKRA

[2] = biological target: T2, fibrinogen-like globe (FBG) domain of human tenascin-C (human, UniProt P24821 1975-2201); assay: SPR; 37°C
T2 chain: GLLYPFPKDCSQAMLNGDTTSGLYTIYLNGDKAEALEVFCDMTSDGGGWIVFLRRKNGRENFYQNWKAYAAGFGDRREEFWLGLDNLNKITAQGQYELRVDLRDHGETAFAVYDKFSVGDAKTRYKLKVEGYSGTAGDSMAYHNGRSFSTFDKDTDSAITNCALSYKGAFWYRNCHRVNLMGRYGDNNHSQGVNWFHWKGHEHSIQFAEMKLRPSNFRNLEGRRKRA

- koff [1]: 0.00473 s⁻¹
- koff [2]: 0.00083 s⁻¹
B1: monoclonal antibody C3 (antibody, V domains shown)
VH: QVQLVESGGGLVQPGRSLRLSCAASGFTFDDYAMHWVRQAPGKGLEWVSGISGSGGSTYYADSVKGRFTISRDNAKNSLYLQMNSLRAEDTALYYCAKSYQSDEDAFDIWGQGTMVTVSS
VL: DIQMTQSPASLPTPVGDRVTITCRASQYIQGFLNWYQQKPGKAPKLLIYDASNLETGVPSRFSGSGSGTDFTLTISSLQPEDFATYYCQQSYSTPQTFGQGTKVDIK
